Measurements as given in patent US20080261892A1, “Acid Addition Salts of Ac-Phscn-Nh2” (priority 2005, published 2008).

Assays:
Format in all cases: physicochemical
[1] = Solution phase stability of free base and hydrochloride salt (monomer vs dimer by HPLC), Example 15; conditions: for % dimer / % monomer: solution in distilled water, 25±1° C.
Description: A 1.657 mM solution of Ac—PHSCN—NH2 in distilled water and a 1.653 mM solution of the hydrochloride salt of Ac—PHSCN—NH2 in distilled water were placed in a water bath at 25±1° C. Aliquots (800 μL) were periodically removed and the amount of dimerization was determined by HPLC.
(§1) All HPLC spectra were taken on a Waters HPLC that included Breeze software, a Waters 2487 Dual λ Absorbance Detector, a Waters 1525 Binary HPLC Pump, and a Waters 717 plus Autosampler. The column was a Phenomenex Synergi 4μ Hydro-RP 80A, 250×4.60 mm 4μ micron. The 40 minute gradient that was used is described in the table below.
Mobile Phase A: 0.1% TFA in acetonitrile Mobile Phase B: 0.1% TFA in water
(§2) The HPLC peak for Ac-Pro-His-Ser-Cys-Asn-NH2 monomer at approximately 9.2 minutes, and the peak for ATN-161 dimer at approximately 10.0 minutes were integrated in order to determine the percentage of these two species in each sample.

[2] = Solid phase stability of free base and hydrochloride salt (monomer vs dimer by HPLC), Example 16; conditions: for % dimer / % monomer: solid stored at 25±1° C.
Description: as §1, §2
Samples of 0.8-1.2 mg of Ac—PHSCN—NH2 and Ac—PHSCN—NH2 hydrochloride salt were weighed into HPLC sample vials and stored at 25±1° C. A 0 h time point was taken. Samples were periodically removed and diluted with distilled water to give a 1 mg/mL solution. The amount of dimerization was determined by HPLC as described in Example 15. The results are illustrated graphically in FIG. 3.

[3] = Solution phase stability of free base, methanesulfonic acid salt and nitric acid salt (HPLC), Example 17; conditions: solution in distilled water, 25±0.5° C.
Description: as §1
A t=0 h timepoint was taken for each solution. The volumetric flasks were placed in a water bath at 25±0.5° C. and, periodically, a 0.7 mL aliquot was removed and the solution analyzed by HPLC as described in Example 15.

[4] = Solid phase stability of free base, methanesulfonic acid salt and nitric acid salt (HPLC), Example 18; conditions: solid stored at 25±0.5° C.
Description: as §1

For “Ac-Pro-His-Ser-Cys-Asn-NH2 (Ac-PHSCN-NH2) [Free Base]”, the “conversion to other products (e.g., the dimer)” value ([1]; in solution after more than 500 hours at room temperature) was “completely converted to other products”, the “% dimer” value ([1]; 0 h) was 6.7% and the “% monomer” value ([1]; 0 h) was 93.3%. For the same substance, the “% dimer” value ([1]; 69 h) was 17.4%, the “% monomer” value ([1]; 69 h) was 82.6% and the “% dimer” value ([1]; 140 h) was 23.5%. For the same substance, the “% monomer” value ([1]; 140 h) was 76.5%, the “% dimer” value ([1]; 188 h) was 28.1% and the “% monomer” value ([1]; 188 h) was 71.9%. The “% dimer” value ([1]; 236 h) was 34.3%, the “% monomer” value ([1]; 236 h) was 65.7% and the “% dimer” value ([1]; 309 h) was 38.9%. For the same substance, the “% monomer” value ([1]; 309 h) was 61.1%, the “% dimer” value ([1]; 357 h) was 43.3% and the “% monomer” value ([1]; 357 h) was 56.7%. For the same substance, the “% dimer” value ([1]; 404 h) was 51.4%, the “% monomer” value ([1]; 404 h) was 48.6% and the “% dimer” value ([1]; 477 h) was 68.7%. For the same substance, the “% monomer” value ([1]; 477 h) was 31.3%, the “% dimer” value ([1]; 525 h) was 83.2% and the “% monomer” value ([1]; 525 h) was 16.8%. The “% dimer” value ([1]; 622 h) was 100%, the “% monomer” value ([1]; 622 h) was 0% and the “% pure in the solid phase” value ([2]; solid phase, after more than 800 hours at room temperature, i.e., 23-25° C.) was “greater than 82%”. For the same substance, the “% dimer” value ([2]; 0 h) was 8.5%, the “% monomer” value ([2]; 0 h) was 91.5% and the “% dimer” value ([2]; 73 h) was 10.0%. The “% monomer” value ([2]; 73 h) was 90.0%, the “% dimer” value ([2]; 143 h) was 11.5% and the “% monomer” value ([2]; 143 h) was 88.5%. The “% dimer” value ([2]; 243 h) was 12.7%, the “% monomer” value ([2]; 243 h) was 87.3% and the “% dimer” value ([2]; 312 h) was 14.0%. For the same substance, the “% monomer” value ([2]; 312 h) was 86.0%, the “% dimer” value ([2]; 410 h) was 13.8% and the “% monomer” value ([2]; 410 h) was 86.2%. The “% dimer” value ([2]; 576 h) was 15.2%, the “% monomer” value ([2]; 576 h) was 84.8% and the “% dimer” value ([2]; 677 h) was 16.1%. The “% monomer” value ([2]; 677 h) was 83.9%, the “% dimer” value ([2]; 818 h) was 17.9% and the “% monomer” value ([2]; 818 h) was 82.1%. The “% dimer” value ([3]; 0 h) was 7.8%, the “% monomer” value ([3]; 0 h) was 92.2% and the “% dimer” value ([3]; 69 h) was 26.1%. For the same substance, the “% monomer” value ([3]; 69 h) was 73.9%, the “% dimer” value ([3]; 140 h) was 30.7% and the “% monomer” value ([3]; 140 h) was 69.3%. The “% dimer” value ([3]; 213 h) was 35.0%, the “% monomer” value ([3]; 213 h) was 65.0% and the “% dimer” value ([3]; 332 h) was 42.5%. For the same substance, the “% monomer” value ([3]; 332 h) was 57.5%, the “% dimer” value ([3]; 408 h) was 46.4% and the “% monomer” value ([3]; 408 h) was 53.6%. The “% dimer” value ([3]; 479 h) was 51.0%, the “% monomer” value ([3]; 479 h) was 49.0% and the “% dimer” value ([3]; 549 h) was 56.2%. The “% monomer” value ([3]; 549 h) was 43.8%, the “% dimer” value ([3]; 645 h) was 68.9% and the “% monomer” value ([3]; 645 h) was 31.1%. For the same substance, the “% dimer” value ([3]; 720 h) was 82.2%, the “% monomer” value ([3]; 720 h) was 17.8% and the “% dimer” value ([3]; 836 h) was 98.5%. For the same substance, the “% monomer” value ([3]; 836 h) was 1.5%, the “% dimer” value ([4]; 0 h) was 6.1% and the “% monomer” value ([4]; 0 h) was 93.9%. The “% dimer” value ([4]; 161 h) was 11.6%, the “% monomer” value ([4]; 161 h) was 88.4% and the “% dimer” value ([4]; 335 h) was 12.5%. The “% monomer” value ([4]; 335 h) was 87.5%, the “% dimer” value ([4]; 498 h) was 14.6% and the “% monomer” value ([4]; 498 h) was 85.4%. The “% dimer” value ([4]; 670 h) was 14.8%, the “% monomer” value ([4]; 670 h) was 85.2% and the “% dimer” value ([4]; 832 h) was 15.7%. The “% monomer” value ([4]; 832 h) was 84.3%, the “% dimer” value ([4]; 1003 h) was 17.0% and the “% monomer” value ([4]; 1003 h) was 83.0%. For the same substance, the “% dimer” value ([4]; 1170 h) was 16.5%, the “% monomer” value ([4]; 1170 h) was 83.5% and the “% dimer” value ([4]; 1363 h) was 17.6%. For the same substance, the “% monomer” value ([4]; 1363 h) was 82.4%, the “% dimer” value ([4]; 1506 h) was 18.6% and the “% monomer” value ([4]; 1506 h) was 81.4%. The “% dimer” value ([4]; 1698 h) was 19.2% and the “% monomer” value ([4]; 1698 h) was 80.8%.
In the case of “Ac-Pro-His-Ser-Cys-Asn-NH2 Methanesulfonic Acid Salt (Ac-PHSCN-NH2; also: methanesulfonic acid salt)”, the “% dimer” value ([3]; 0 h) is reported as 7.4%, the “% monomer” value ([3]; 0 h) is reported as 92.6% and the “% dimer” value ([3]; 69 h) is reported as 22.6%. The “% monomer” value ([3]; 69 h) was 77.4%, the “% dimer” value ([3]; 140 h) was 30.3% and the “% monomer” value ([3]; 140 h) was 69.7%. For the same substance, the “% dimer” value ([3]; 213 h) was 37.2%, the “% monomer” value ([3]; 213 h) was 62.8% and the “% dimer” value ([3]; 332 h) was 48.0%. For the same substance, the “% monomer” value ([3]; 332 h) was 52.0%, the “% dimer” value ([3]; 408 h) was 54.5% and the “% monomer” value ([3]; 408 h) was 45.5%. For the same substance, the “% dimer” value ([3]; 479 h) was 60.5%, the “% monomer” value ([3]; 479 h) was 39.5% and the “% dimer” value ([3]; 549 h) was 66.7%. The “% monomer” value ([3]; 549 h) was 33.3%, the “% dimer” value ([3]; 645 h) was 74.3% and the “% monomer” value ([3]; 645 h) was 25.7%. The “% dimer” value ([3]; 720 h) was 79.5%, the “% monomer” value ([3]; 720 h) was 20.5% and the “% dimer” value ([3]; 836 h) was 84.8%. The “% monomer” value ([3]; 836 h) was 15.2%, the “% dimer” value ([4]; 0 h) was 6.8% and the “% monomer” value ([4]; 0 h) was 93.2%. For the same substance, the “% dimer” value ([4]; 161 h) was 7.2%, the “% monomer” value ([4]; 161 h) was 92.8% and the “% dimer” value ([4]; 335 h) was 7.5%. The “% monomer” value ([4]; 335 h) was 92.5%, the “% dimer” value ([4]; 498 h) was 7.0% and the “% monomer” value ([4]; 498 h) was 93.0%. The “% dimer” value ([4]; 670 h) was 7.7%, the “% monomer” value ([4]; 670 h) was 92.3% and the “% dimer” value ([4]; 832 h) was 7.2%. The “% monomer” value ([4]; 832 h) was 92.8%, the “% dimer” value ([4]; 1003 h) was 7.2% and the “% monomer” value ([4]; 1003 h) was 92.8%. The “% dimer” value ([4]; 1170 h) was 7.3%, the “% monomer” value ([4]; 1170 h) was 92.7% and the “% dimer” value ([4]; 1363 h) was 8.6%. For the same substance, the “% monomer” value ([4]; 1363 h) was 91.4%, the “% dimer” value ([4]; 1506 h) was 7.6% and the “% monomer” value ([4]; 1506 h) was 92.4%. The “% dimer” value ([4]; 1698 h) was 8.1% and the “% monomer” value ([4]; 1698 h) was 91.9%.
With “Ac-Pro-His-Ser-Cys-Asn-NH2, hydrochloride salt (Ac-PHSCN-NH2; also: hydrochloride salt)” the “% dimer” value ([1]; 0 h) was 0%, the “% monomer” value ([1]; 0 h) was 100% and the “% dimer” value ([1]; 69 h) was 3.3%. For the same substance, the “% monomer” value ([1]; 69 h) was 96.7%, the “% dimer” value ([1]; 140 h) was 6.1% and the “% monomer” value ([1]; 140 h) was 93.9%. For the same substance, the “% dimer” value ([1]; 188 h) was 6.4%, the “% monomer” value ([1]; 188 h) was 93.6% and the “% dimer” value ([1]; 236 h) was 6.8%. The “% monomer” value ([1]; 236 h) was 93.2%, the “% dimer” value ([1]; 309 h) was 6.7% and the “% monomer” value ([1]; 309 h) was 93.3%. For the same substance, the “% dimer” value ([1]; 357 h) was 6.7%, the “% monomer” value ([1]; 357 h) was 93.3% and the “% dimer” value ([1]; 404 h) was 7.3%. For the same substance, the “% monomer” value ([1]; 404 h) was 92.7%, the “% dimer” value ([1]; 477 h) was 8.4% and the “% monomer” value ([1]; 477 h) was 91.6%. For the same substance, the “% dimer” value ([1]; 525 h) was 9.0%, the “% monomer” value ([1]; 525 h) was 91.0% and the “% dimer” value ([1]; 622 h) was 10.7%. For the same substance, the “% monomer” value ([1]; 622 h) was 89.3%, the “% dimer” value ([2]; 0 h) was 0% and the “% monomer” value ([2]; 0 h) was 100%. The “% dimer” value ([2]; 73 h) was 0%, the “% monomer” value ([2]; 73 h) was 100% and the “% dimer” value ([2]; 143 h) was 0%. For the same substance, the “% monomer” value ([2]; 143 h) was 100%, the “% dimer” value ([2]; 243 h) was 0% and the “% monomer” value ([2]; 243 h) was 100%. For the same substance, the “% dimer” value ([2]; 312 h) was 0%, the “% monomer” value ([2]; 312 h) was 100% and the “% dimer” value ([2]; 410 h) was 0%. For the same substance, the “% monomer” value ([2]; 410 h) was 100%, the “% dimer” value ([2]; 576 h) was 0.3% and the “% monomer” value ([2]; 576 h) was 99.7%. For the same substance, the “% dimer” value ([2]; 677 h) was 0.7%, the “% monomer” value ([2]; 677 h) was 99.3% and the “% dimer” value ([2]; 818 h) was 0%. The “% monomer” value ([2]; 818 h) was 100%.
